# Data from the supplement of paper PMC9170038.
# Tested on: K4 kissing-loop RNA reporter
# Test: apparent KD of K4 kissing-loop reporter; higher = weaker reporter binding
# Settings: Eterna round: R107
# Experimental: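 RNA-MaP round R107: designed RNA switches with theophylline, tryptophan, arginine or FMN aptamers are transcribed on-chip within common flanks. They are titrated with a labelled K4 kissing-loop RNA reporter in RNA-MaP buffer (100 mM Tris pH 7.5, 80 mM KCl, 4 mM MgCl2), without ligand or with the indicated ligand. Median apparent KD per design.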
# [1] = input ligand: theophylline 20 uM
# [2] = input ligand: tryptophan 2.4 mM
# 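Further: bound reporter read as fluorescence of individual clusters on recovered sequencing chips by microscopy, with normalized cluster intensities fitted with a binding model.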
Sequence,apparent KD of K4 kissing-loop reporter (input ligand: FMN 200 uM),apparent KD of K4 kissing-loop reporter (input ligand: arginine 13.2 mM),apparent KD of K4 kissing-loop reporter (input ligand: none),apparent KD of K4 kissing-loop reporter [1],apparent KD of K4 kissing-loop reporter [2]
UUUAUAUAGUCGGCCGCCACUGAUUUUUAUAUAUGUUUAUGUUUAUACGAGUGAUGUUCGAUAUACAGGACCGGGACUUUUGUUA [JR_SSTryptoB_Sub017],0.268 µM,0.291 µM,0.294 µM,0.306 µM,0.207 µM
UUUAUAUUGUCGGCCGCCACUGGAUUAAUAUUUGUAUAAUCUAGUUCAAAGUGAUGUUUUGAGUCCAGGACCGGGACAUUUGUUA [JR_ExcTryptoB_Sub004],0.67 µM,0.515 µM,0.536 µM,0.558 µM,0.445 µM
UUUAUUAAGACGGCCGCCACUGAAUCAUAGUGAUGUUAUGAUAAAAUUUUAGAUAAUAAUAACAGCAGGACCGGGUCAAUUAUUA [JR_SSTryptoB_Sub015],0.2 µM,0.173 µM,0.208 µM,0.191 µM,0.182 µM
UUUAUUAAGACGGCCGCCACUGAUUCAGAGUGAUGUUCUGAUAAAAUUUUAGAUAAUAAUAACAGCAGGACCGGGUCAAUUAUUA [JR_SSTryptoB_Sub014],0.211 µM,0.211 µM,0.238 µM,0.219 µM,0.208 µM
UUUCUACCGGGAAGGAGCGUGAAUGAUAAUGGAUAUAGUGAUGUUAUAUAUACGAACGAAUCGCAGGUAGGUCGCCCGGAUCCCU [SSArgB.V],0.492 µM,0.594 µM,0.593 µM,0.549 µM,0.496 µM
UUUCUUUUCUUUUGCGAUCCUAUCCCUUAUAAGGAUAUCUAGAAAUAGAGAAGGUAUGCAGUGAUGUUGCUUGGGAUAGGAUCGC,0.311 µM,0.275 µM,0.301 µM,0.277 µM,0.241 µM
UUUGGCCACAGAGAUACCAGUCAUAUCGCUCUGGAGUGAUGUUCCGGAACAUGCGGAGAAGACCCUUGGCAGCUCAUGACGGUAA [Exclusion Theophylline B GF 2],0.232 µM,0.194 µM,0.196 µM,0.201 µM,0.254 µM
UUUGGUAGCGGUGUUGAUUAGGGAGCGGAAGGAGCGCCGAGGAGGGCAGGUAGGUCGCCGGAAUGUAGUGAUGUUGCAUAGAGGU [ExArgA.Ab],0.269 µM,0.227 µM,0.253 µM,0.574 µM,0.214 µM
UUUGUAUCGGGAAGGAGCGUGAAUGAUAAUGGAUAUAGUGAUGUUAUAUAUAAGAACGAAUCACAGGUAGGUCGCCCGGAUGACU [SSArgB.P],0.546 µM,0.566 µM,0.648 µM,0.586 µM,0.678 µM
UUUGUGAGUGAUGUUUGCAAUACGUUACCGAAGGAUAUUGUUGCGCCAAGAAGGUCGGAUGGAUCCAUGGGACAUGCCCUGGAGA [theeternabot_sameState_KL_FMN_A_45],0.617 µM,0.384 µM,0.509 µM,0.45 µM,0.474 µM
UUUUAAUAAGAGGAUACCAGUACAAAUAAAGUACAUUAAUAGUAGAGUGAUGUUCUAAAGUACCCUUGGCAGCUUAGAGUAAGUU [ExTheophylB.B],0.123 µM,0.242 µM,0.156 µM,0.26 µM,0.0998 µM
UUUUAAUGCAGUGAUGUUGCAAAUAAAACAGAGGAUAUGCAUGGAAGCAGAAGGCUGAUAUGUCGUACUUCGACAUAUUAUAUUU [JR_SSFMNA_Sub012],0.0892 µM,0.125 µM,0.0914 µM,0.121 µM,0.081 µM
UUUUACGAUACGGCCGCCACUGGUGUUAUAUAUUUGCAGGAGUGAUGUUCGUGCGAUCAUUCCAUCAGGACCGGGUAUACGCGGC [theeternabot_sameState_KL_Trp_B_43],0.265 µM,0.209 µM,0.318 µM,0.765 µM,0.507 µM
UUUUAUUAAUACUUCUAGUGAUGUUAGAUACGAGGACCGGUACGGCCGCCACUCGCUUAUUGGUUUAUAUAUUUUUUAUUCUUUA [JR_SSTryptoA_Sub013],0.276 µM,0.349 µM,0.316 µM,0.353 µM,0.263 µM
UUUUGGCCAACGGCCGCCACUCACUAGUGAUGUUAGUUUGUGUUAUUCAUGAACCCGAUGUCGUCGAGGACCGGGUUGGGUUAUA [theeternabot_exclusion_KL_Trp_B_41],0.242 µM,0.197 µM,0.237 µM,0.201 µM,0.244 µM
UUUUUAAACUCGGCCGCCACUCAAAUGGGAGUGAUGUUCCCAAAAUAAUAAAUAAAUAAUAAUAAGAGGACCGGGAGAAAUUUUU [Same State - Trytophan B],0.094 µM,0.0982 µM,0.106 µM,0.0948 µM,0.0813 µM
UUUUUAAUCGCAGAUACCAGUCCAGAAUAAAUACUAUAGUGAUGUUAUAAAUAAGGAAAGGACCCUUGGCAGCUGUACUAUAUUU [AstrosSsTheB#7],0.433 µM,0.465 µM,0.668 µM,0.372 µM,0.524 µM
UUUUUAUUCAGUGAUGUUGAAUUUAUAACAGAGGAUAUGCAUAAAAGCAGAAGGCUGAAAUACUAUACUUUAAUAAAUUAUAUUU [JR_SSFMNA_Sub016],0.214 µM,0.274 µM,0.261 µM,0.326 µM,0.192 µM
UUUUUUAAGAUGUCGACCAACCCGAAGCUACGAGGACCGGUACGGCCGCCACUCGCCAGUGAUGUUGGCGACUGGUGAAACCAUG [Ceesaror],0.133 µM,0.0978 µM,0.11 µM,0.103 µM,0.227 µM
